This passage reports abundance fitness results from the Human Domainome abundance scans (Beltran et al. 2025).

± gives the uncertainty stated by the source.

The labels stand for the following.
B1: SWI/SNF complex subunit SMARCC1, residues 620 to 663; numbered along this chain, Q92922 (parent)
chain: GREWTEQETLLLLEALEMYKDDWNKVSEHVGSRTQDECILHFLR

In this series the parent is B1. In words: abundance fitness (aPCA) (normalised: wild type 0, dead -1); higher = more abundant; growth selection in yeast, the domain comes from the species named. To be noted: Homo sapiens.
With GREWTEQETCLLLEALEMYKDDWNKVSEHVGSRTQDECILHFLR [L10C], the abundance fitness amounted to 0.243 ± 0.11.
The same measure for GREWTEQETALLLEALEMYKDDWNKVSEHVGSRTQDECILHFLR [L10A]: -0.019 ± 0.067; for GYEWTEQETLLLLEALEMYKDDWNKVSEHVGSRTQDECILHFLR [R2Y]: -0.04 ± 0.097.
Regarding GRPWTEQETLLLLEALEMYKDDWNKVSEHVGSRTQDECILHFLR [E3P], the abundance fitness came out at 0.077 ± 0.11.
With GRDWTEQETLLLLEALEMYKDDWNKVSEHVGSRTQDECILHFLR [E3D], the abundance fitness was found to be 0.311 ± 0.12.
Regarding GRVWTEQETLLLLEALEMYKDDWNKVSEHVGSRTQDECILHFLR [E3V], the abundance fitness came to 0.312 ± 0.096.
With GRQWTEQETLLLLEALEMYKDDWNKVSEHVGSRTQDECILHFLR [E3Q], the abundance fitness was determined as 0.12 ± 0.12.
GRMWTEQETLLLLEALEMYKDDWNKVSEHVGSRTQDECILHFLR [E3M]: the abundance fitness was -0.063 ± 0.13.
Consider GRWWTEQETLLLLEALEMYKDDWNKVSEHVGSRTQDECILHFLR [E3W], for which the abundance fitness was -0.674 ± 0.12.
With GRAWTEQETLLLLEALEMYKDDWNKVSEHVGSRTQDECILHFLR [E3A], the abundance fitness is -0.04 ± 0.12.
Regarding GRSWTEQETLLLLEALEMYKDDWNKVSEHVGSRTQDECILHFLR [E3S], the abundance fitness was 0.329 ± 0.084.
In the case of GRLWTEQETLLLLEALEMYKDDWNKVSEHVGSRTQDECILHFLR [E3L], the abundance fitness is -0.03 ± 0.12.
In the case of GRCWTEQETLLLLEALEMYKDDWNKVSEHVGSRTQDECILHFLR [E3C], the abundance fitness was -0.353 ± 0.14.
Take GRFWTEQETLLLLEALEMYKDDWNKVSEHVGSRTQDECILHFLR [E3F]: the abundance fitness stood at 0.178 ± 0.14.
Take GRYWTEQETLLLLEALEMYKDDWNKVSEHVGSRTQDECILHFLR [E3Y]: the abundance fitness came to 0.229 ± 0.11.
On to GRGWTEQETLLLLEALEMYKDDWNKVSEHVGSRTQDECILHFLR [E3G], for which the abundance fitness is 0.158 ± 0.063.
The same measure for GREWTEPETLLLLEALEMYKDDWNKVSEHVGSRTQDECILHFLR [Q7P]: -0.381 ± 0.34; for GREWTELETLLLLEALEMYKDDWNKVSEHVGSRTQDECILHFLR [Q7L]: -0.578 ± 0.46; for GREWTERETLLLLEALEMYKDDWNKVSEHVGSRTQDECILHFLR [Q7R]: 0.206 ± 0.15.
Turning to GREWTEVETLLLLEALEMYKDDWNKVSEHVGSRTQDECILHFLR [Q7V], the abundance fitness is -0.227 ± 0.28.
For GREWTEIETLLLLEALEMYKDDWNKVSEHVGSRTQDECILHFLR [Q7I], the abundance fitness is 0.341 ± 0.15.
Regarding GREWTETETLLLLEALEMYKDDWNKVSEHVGSRTQDECILHFLR [Q7T], the abundance fitness was 0.075 ± 0.19.
In the case of GREWTEGETLLLLEALEMYKDDWNKVSEHVGSRTQDECILHFLR [Q7G], the abundance fitness was -0.052 ± 0.16.
GREWTSQETLLLLEALEMYKDDWNKVSEHVGSRTQDECILHFLR [E6S]: the abundance fitness is -0.441 ± 0.075.
With GREWTCQETLLLLEALEMYKDDWNKVSEHVGSRTQDECILHFLR [E6C], the abundance fitness was -0.069 ± 0.073.
GREWTFQETLLLLEALEMYKDDWNKVSEHVGSRTQDECILHFLR [E6F]: the abundance fitness was -0.265 ± 0.072.
Turning to GREWTLQETLLLLEALEMYKDDWNKVSEHVGSRTQDECILHFLR [E6L], the abundance fitness is -0.234 ± 0.073.
Regarding GREWTIQETLLLLEALEMYKDDWNKVSEHVGSRTQDECILHFLR [E6I], the abundance fitness is -0.12 ± 0.075.
As for GREWTYQETLLLLEALEMYKDDWNKVSEHVGSRTQDECILHFLR [E6Y], the abundance fitness was -0.178 ± 0.073.
For GREWTPQETLLLLEALEMYKDDWNKVSEHVGSRTQDECILHFLR [E6P], the abundance fitness was -0.264 ± 0.069.
The value for GREWTRQETLLLLEALEMYKDDWNKVSEHVGSRTQDECILHFLR [E6R] was -0.137 ± 0.062.
The same measure for GREWTNQETLLLLEALEMYKDDWNKVSEHVGSRTQDECILHFLR [E6N]: -0.17 ± 0.11; for GREWTTQETLLLLEALEMYKDDWNKVSEHVGSRTQDECILHFLR [E6T]: -0.12 ± 0.052.
The value for GREWTKQETLLLLEALEMYKDDWNKVSEHVGSRTQDECILHFLR [E6K] was 0.181 ± 0.081; that for GREWTDQETLLLLEALEMYKDDWNKVSEHVGSRTQDECILHFLR [E6D] was -0.164 ± 0.072.
In the case of GREWTAQETLLLLEALEMYKDDWNKVSEHVGSRTQDECILHFLR [E6A], the abundance fitness is 0.071 ± 0.056.
GREWTQQETLLLLEALEMYKDDWNKVSEHVGSRTQDECILHFLR [E6Q]: the abundance fitness stood at 0.212 ± 0.075.
With GREWTWQETLLLLEALEMYKDDWNKVSEHVGSRTQDECILHFLR [E6W], the abundance fitness was -0.155 ± 0.083.
GREWTVQETLLLLEALEMYKDDWNKVSEHVGSRTQDECILHFLR [E6V]: the abundance fitness is -0.227 ± 0.072.
The value for GREWTMQETLLLLEALEMYKDDWNKVSEHVGSRTQDECILHFLR [E6M] was 0.099 ± 0.073.
For GREWTGQETLLLLEALEMYKDDWNKVSEHVGSRTQDECILHFLR [E6G], the abundance fitness is -0.194 ± 0.076.
The value for GREWTEQMTLLLLEALEMYKDDWNKVSEHVGSRTQDECILHFLR [E8M] was -0.482 ± 0.21; that for GREWTEQHTLLLLEALEMYKDDWNKVSEHVGSRTQDECILHFLR [E8H] was -0.54 ± 0.17.
Take GREWTEQCTLLLLEALEMYKDDWNKVSEHVGSRTQDECILHFLR [E8C]: the abundance fitness was -0.616 ± 0.16.
GREWTEQITLLLLEALEMYKDDWNKVSEHVGSRTQDECILHFLR [E8I]: the abundance fitness was -0.746 ± 0.23.
The value for GREWTEQATLLLLEALEMYKDDWNKVSEHVGSRTQDECILHFLR [E8A] was -0.808 ± 0.14; that for GREWTEQDTLLLLEALEMYKDDWNKVSEHVGSRTQDECILHFLR [E8D] was -0.76 ± 0.23.
The value for GREWTEQLTLLLLEALEMYKDDWNKVSEHVGSRTQDECILHFLR [E8L] was -0.936 ± 0.13; that for GREWTEQSTLLLLEALEMYKDDWNKVSEHVGSRTQDECILHFLR [E8S] was -1.01 ± 0.14; that for GREWTEQNTLLLLEALEMYKDDWNKVSEHVGSRTQDECILHFLR [E8N] was -0.584 ± 0.12.
GREWTEQVTLLLLEALEMYKDDWNKVSEHVGSRTQDECILHFLR [E8V]: the abundance fitness was -1 ± 0.22.
Turning to GREWTEQQTLLLLEALEMYKDDWNKVSEHVGSRTQDECILHFLR [E8Q], the abundance fitness is -0.098 ± 0.1.
The same measure for GREWTEQYTLLLLEALEMYKDDWNKVSEHVGSRTQDECILHFLR [E8Y]: -1.21 ± 0.23; for GREWTEQPTLLLLEALEMYKDDWNKVSEHVGSRTQDECILHFLR [E8P]: -0.593 ± 0.12; for GREWTEQTTLLLLEALEMYKDDWNKVSEHVGSRTQDECILHFLR [E8T]: -0.651 ± 0.16.
With GREWTEQWTLLLLEALEMYKDDWNKVSEHVGSRTQDECILHFLR [E8W], the abundance fitness is -1.06 ± 0.33.
Turning to GREWTEQGTLLLLEALEMYKDDWNKVSEHVGSRTQDECILHFLR [E8G], the abundance fitness was -0.861 ± 0.12.
In the case of GREWTEQFTLLLLEALEMYKDDWNKVSEHVGSRTQDECILHFLR [E8F], the abundance fitness was -0.702 ± 0.26.
